# Results taken from article doi:10.1101/2022.01.19.476998 (bioRxiv, 2022).
# Target: SARS-CoV-2 Spike S1 (Omicron) (SARS-CoV-2 Omicron B.1.1.529 (BA.1), strain)
# Assay: SPR
binder,measurement,value
"Cilgavimab (antibody, V domains shown) VH: EVQLVESGGGLVKPGGSLRLSCAASGFTFRDVWMSWVRQAPGKGLEWVGRIKSKIDGGTTDYAAPVKGRFTISRDDSKNTLYLQMNSLKTEDTAVYYCTTAGSYYYDTVGPGLPEGKFDYWGQGTLVTVSS VL: not shown",binding result,binds
